Source: patent US20200018762

Columns and labels:
[1] = target: FLAG-tagged Y37F mutant-H2B (UniProt P62807)
FLAG-tagged H2B = FLAG-tagged H2B (UniProt P62807)
[2] = system: biotinylated human histone H2B derived peptide KRSRKESYSVYVYKVL
[3] = system: biotinylated H4-derived unphosphorylated peptide TVTAMDVVYALKRQGRT
[4] = system: H2B peptide spanning Tyr37 (Tyr37-H2B; SRKESYSVYVYK)
[5] = system: H2B peptide with a Tyr37-to-Phe mutation (SRKESFSVYVYK)
[6] = target: purified human H3 recombinant protein (NEB) (UniProt P68431)
[7] = target: purified human H4 recombinant protein (NEB) (UniProt P62805)
[8] = system: purified human H2A recombinant protein (NEB)
[9] = target: purified human H2B recombinant protein (NEB) (UniProt P62807)

Sequence of recombinant GST-WEE1 protein (Invitrogen) (chain, as listed by the source): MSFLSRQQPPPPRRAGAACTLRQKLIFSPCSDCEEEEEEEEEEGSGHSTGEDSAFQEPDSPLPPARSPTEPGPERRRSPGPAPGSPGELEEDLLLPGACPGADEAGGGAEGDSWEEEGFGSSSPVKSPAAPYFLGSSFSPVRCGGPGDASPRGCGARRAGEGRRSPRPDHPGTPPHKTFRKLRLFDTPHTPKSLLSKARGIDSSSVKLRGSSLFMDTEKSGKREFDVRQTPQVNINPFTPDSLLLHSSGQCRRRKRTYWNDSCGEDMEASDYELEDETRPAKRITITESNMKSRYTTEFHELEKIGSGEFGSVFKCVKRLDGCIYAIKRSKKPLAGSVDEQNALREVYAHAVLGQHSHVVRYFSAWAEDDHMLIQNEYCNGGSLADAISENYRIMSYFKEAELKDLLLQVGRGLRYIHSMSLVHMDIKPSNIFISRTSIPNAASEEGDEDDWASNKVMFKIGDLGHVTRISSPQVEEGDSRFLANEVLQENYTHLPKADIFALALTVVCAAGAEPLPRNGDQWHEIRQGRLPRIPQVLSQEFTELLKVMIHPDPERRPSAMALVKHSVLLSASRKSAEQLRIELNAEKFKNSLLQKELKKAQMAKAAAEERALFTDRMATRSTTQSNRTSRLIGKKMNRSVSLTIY
Sequence of purified WEE1 protein (Examples 5 and 7) (chain, as listed by the source): as above
Sequence of Myc-tagged WEE1 (WT) (chain, as listed by the source): as above

Myc-tagged WEE1 (WT)
coexpression in MEFs, immunoprecipitation with pTyr37-H2B antibodies, FLAG immunoblot [1]: failed to phosphorylate Y37F mutant (FIG. 13G) | coexpression in MEFs, immunoprecipitation with pTyr37-H2B antibodies, FLAG immunoblot (FLAG-tagged H2B): the WT-WEE1 specifically phosphorylated H2B

purified WEE1 protein (Examples 5 and 7)
Peptide Immunosandwich Assay (kinase reaction on immobilized peptide, detection with pY37-H2B antibodies, OD 450 nm) [2]: Purified WEE1 exhibited robust H2B Tyr37-phosphorylation and a significant decrease in pY37-H2B levels was observed upon incubation with 5 uM of MK-1775 (FIG. 34) | in vitro kinase assay on immobilized peptide, ELISA with pY88-H4 antibodies [3]: Incubation of H4 peptide with WEE1 and Ack1 protein resulted in robust H4 Tyr88-phosphorylation

recombinant GST-WEE1 protein (Invitrogen)
in vitro kinase reaction with peptide, dot blot with pTyr37-H2B antibody [4]: WEE1 phosphorylated H2B peptide | in vitro kinase reaction with peptide, dot blot with pTyr37-H2B antibody [5]: Y37F mutant peptide was not phosphorylated | in vitro kinase assay, immunoblot with pTyr37-H2B antibody [6]: WEE1 specifically phosphorylated H2B and failed to phosphorylate other three core histones, H2A, H3 and H4 (FIG. 13E) | in vitro kinase assay, immunoblot with pTyr37-H2B antibody [7]: WEE1 specifically phosphorylated H2B and failed to phosphorylate other three core histones, H2A, H3 and H4 (FIG. 13E) | in vitro kinase assay, immunoblot with pTyr37-H2B antibody [8]: WEE1 specifically phosphorylated H2B and failed to phosphorylate other three core histones, H2A, H3 and H4 (FIG. 13E) | in vitro kinase assay, immunoblot with pTyr37-H2B antibody [9]: When purified WEE1 and H2B were incubated, H2B was Tyr37-phosphorylated, however, WEE1 inhibitor abrogated H2B pTyr37-phosphorylation (FIG. 13D)
